Laboratory results: publication PMC4264349

Target: Biotinylated calmodulin (UniProt P62157)
Experiment: film bulk acoustic resonator (FBAR); biotinylated calmodulin immobilised on Neutravidin adsorbed on the gold sensor surface (190 ng/cm^2 shown; qualitatively the same at all surface concentrations); peptide injected in flow, 10 µL/min; 10 mM HEPES-NaOH, pH 7.2, 100 mM NaCl, 1 mM CaCl2; resonant frequency and motional resistance monitored; peptide concentration not given

resonant frequency shift at saturation: -1.4 MHz
Substance: Ca2+/calmodulin kinase II inhibitor (CaMKII 281-309) (from UniProt P11275 281-309) (peptide)
